Results as given in the supplement of paper PMC12667976.
± gives the standard error.

B1: library; numbered along this chain (parent)
chain: MATDAALRRLLRLHRTEIAVAVDSAFPLLHALADHDVVPEDKFQETLHLKEKEGCPQAFHALLSWLLTQDSTAILDFWRVLFKDYNLERYGRLQPILDSFPKDVDLSQPRKGRKPPAVPKALVPPPRLPTKRKASEEARAAAPAALTPRGTASPGSQLKAKPPKKPESSAEQQRLPLGNGIQTMSASVQRAVAMSSGDVPGARGAVEGILIQQVFESGGSKKCIQVGGEFYTPSKFEDSGSGKNKARSSSGPKPLVRAKGAQGAAPGGGEARLGQQGSVPAPLALPSDPQLHQKNEDECAVCRDGGELICCDGCPRAFHLACLSPPLREIPSGTWRCSSCLQATVQEVQPRAEEPRPQEPPVETPLPPGLRSAGEEVRGPPGEPLAGMDTTLVYKHLPAPPSAAPLPGLDSSALHPLLCVGPEGQQNLAPGARCGVCGDGTDVLRCTHCAAAFHWRCHFPAGTSRPGTGLRCRSCSGDVTPAPVEGVLAPSPARLAPGPAKDDTASHEPALHRDDLESLLSEHTFDGILQWAIQSMARPAAPFPS

Variants of: B1
Experiment: AIRE transcriptional activation functional score (insulin promoter-GFP; nonsense median 0, synonymous median 1) (normalised score); higher = higher AIRE activity (more reporter activation)
Settings: with insulin promoter-GFP reporter in HEK293
How it was run: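 The functional score compares variant enrichment between select and non-select populations after subtracting wild type. To obtain it, codon-optimized AIRE NNN-codon libraries spanning three regions were placed by Bxb1 recombinase into Flp-In T-REx HEK293 landing-pad cells with an insulin core promoter-GFP reporter. Cells with the top 10% GFP and unselected integrants were tile-sequenced after mCherry+, BFP− integrants had been sorted at day 7 and grown 7 more days. Only variants with 10 counts per million in non-select were kept, rescaled to nonsense median 0 and synonymous median 1, and averaged across biological replicates.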

Row | Variant | AIRE transcriptional activation functional score
1 | T130Y | 1.11 ± 0.15
2 | T364W | 1.73 ± 0.03
3 | G197F | 0.852 ± 0.32
4 | W455T | 0.727 ± 0.17
5 | G424A | 1.25 ± 0.19
6 | F43V | 0.36 ± 0.83
7 | S156Y | 0.901 ± 0.32
8 | A541I | 1.3 ± 0.064
9 | G242P | 0.412 ± 0.71
10 | A500F | 0.977 ± 0.19
11 | D76E | 0.132 ± 0.51
12 | I181R | 0.684 ± 0.36
13 | I181T | 0.242 ± 0.54
14 | L87P | 0.0832 ± 1.1
15 | S535I | 0.212 ± 0.36
16 | S535M | -0.462 ± 0.48
17 | S535R | 0.12 ± 0.24
18 | L417I | 0.855 ± 0.24
19 | L417F | 1.3 ± 0.11
20 | C310H | 0.624 ± 0.2
21 | C310Q | 0.509 ± 0.23
22 | R113M | 0.565 ± 0.038
23 | G435T | 0.0827 ± 0.33
24 | G435Q | 0.663 ± 0.11

Row | Variant | AIRE transcriptional activation functional score
25 | A540T | 0.867 ± 0.26
26 | A540Y | 0.912 ± 0.12
27 | K164L | 1.14 ± 0.35
28 | T3L | 1.26 ± 0.31
29 | R15M | 0.112 ± 0.11
30 | E270P | 1.64 ± 0.2
31 | E270F | 0.977 ± 0.13
32 | G486R | 0.926 ± 0.16
33 | P252D | 0.862 ± 0.034
34 | P400R | 1.16 ± 0.18
35 | P400N | 0.58 ± 0.082
36 | D526E | 0.925 ± 0.046
37 | H14A | -0.0434 ± 0.09
38 | C314G | 0.862 ± 0.088
39 | C314K | 1 ± 0.12
40 | L75N | 1.01 ± 0.29
41 | L255I | 0.98 ± 0.29
42 | D389Y | 0.964 ± 0.08
43 | S234K | 0.869 ± 0.12
44 | S234C | 1.53 ± 0.19
45 | K114G | 0.427 ± 0.71
46 | K114M | 0.913 ± 0.028
47 | K114P | 0.1 ± 0.84
48 | W531N | -0.329 ± 0.13

Row | Variant | AIRE transcriptional activation functional score
49 | R494W | 1.41 ± 0.26
50 | R494P | 0.439 ± 0.34
51 | V484C | 0.29 ± 0.025
52 | V484G | 1.18 ± 0.29
53 | L366I | 0.894 ± 0.15
54 | P380T | 1.45 ± 0.17
55 | L428E | 0.885 ± 0.37
56 | E207Y | 0.0192 ± 0.34
57 | P360D | 0.792 ± 0.048
58 | A191L | 0.166 ± 0.29
59 | A191T | 1.27 ± 0.26
60 | A191C | 1.08 ± 0.068
61 | A191K | 0.485 ± 0.061
62 | A191N | 0.144 ± 0.39
63 | A141K | 1.19 ± 0.16
64 | I330W | 0.987 ± 0.079
65 | I330Y | 0.572 ± 0.036
66 | G150Y | 2.21 ± 0.57
67 | S217H | 1.07 ± 0.11
68 | A246F | 1.39 ± 0.099
69 | E376W | 1.23 ± 0.12
70 | T524H | -0.0688 ± 0.42
71 | E88T | 1.95 ± 0.23
72 | L49W | -0.0359 ± 0.22

Row | Variant | AIRE transcriptional activation functional score
73 | Q275Y | 1.35 ± 0.22
74 | R316M | 1.04 ± 0.022
75 | K120W | 1.43 ± 0.041
76 | R351N | 1.56 ± 0.053
77 | A321C | 0.948 ± 0.093
78 | A461R | 0.878 ± 0.14
79 | A461E | 0.952 ± 0.25
80 | C449E | 0.0473 ± 0.093
81 | P492S | 1.03 ± 0.19
82 | G467L | 1.46 ± 0.33
83 | P166L | 0.95 ± 0.49
84 | S287T | 1.44 ± 0.12
85 | P405G | 0.341 ± 0.094
86 | T147G | 0.811 ± 0.49
87 | D478P | 0.801 ± 0.34
88 | A489G | 0.932 ± 0.37
89 | A489F | 1.16 ± 0.26
90 | G240S | 1.1 ± 0.27
91 | A429F | 1.34 ± 0.1
92 | G431N | 0.881 ± 0.19
93 | G431A | 1.23 ± 0.28
94 | D34R | -0.24 ± 0.92
95 | D34N | 0.331 ± 0.084
96 | P355W | 1.32 ± 0.019

Row | Variant | AIRE transcriptional activation functional score
97 | G208H | -0.0252 ± 0.11
98 | E307S | 1.2 ± 0.34
99 | Q57Y | 0.535 ± 0.2
100 | P289G | 1.14 ± 0.17
101 | A152N | 0.485 ± 0.32
102 | E359A | 0.785 ± 0.2
103 | V279N | 0.603 ± 0.33
104 | R149D | 1.12 ± 0.18
105 | L308T | 0.853 ± 0.17
106 | L320I | 0.729 ± 0.16
107 | L320W | 0.685 ± 0.1
108 | P407D | 1.67 ± 0.096
109 | P407H | 1.28 ± 0.3
110 | P407Y | 1.51 ± 0.077
111 | P124R | 0.769 ± 0.43
112 | P124K | 0.627 ± 0.26
113 | R513T | 1.17 ± 0.29
114 | P162L | 1.04 ± 0.9
115 | T72R | 0.0611 ± 0.49
116 | T72I | 0.104 ± 0.57
117 | Q173N | 1.68 ± 0.1
118 | P325C | 1.04 ± 0.35
119 | G219Y | 1.14 ± 0.054
120 | K235W | 1.15 ± 0.051

Row | Variant | AIRE transcriptional activation functional score
121 | K235H | 0.221 ± 0.2
122 | K235Y | 1.01 ± 0.34
123 | H396V | 1.25 ± 0.42
124 | H396G | 0.899 ± 0.12
125 | L11A | -0.709 ± 0.55
126 | G382Y | 1.13 ± 0.097
127 | V420D | 0.683 ± 0.26
128 | L392T | 0.53 ± 0.1
129 | L392A | 0.196 ± 0.14
130 | L62T | -0.152 ± 0.78
131 | L177V | 0.75 ± 0.67
132 | T463Y | 0.384 ± 1
133 | M184N | 0.0346 ± 0.28
134 | A343F | 1.38 ± 0.48
135 | A343H | 1.02 ± 0.16
136 | A496E | 0.99 ± 0.055
137 | A496V | 0.988 ± 0.23
138 | A271L | 1.24 ± 0.29
139 | L409I | 1.16 ± 0.21
140 | F77E | 0.445 ± 0.46
141 | L495I | 1.22 ± 0.088
142 | V38S | -0.704 ± 0.47
143 | L488Y | 1.31 ± 0.13
144 | G369N | 1.1 ± 0.061

Row | Variant | AIRE transcriptional activation functional score
145 | D514Y | 0.351 ± 0.055
146 | T344C | 1.26 ± 0.26
147 | A264Q | 0.566 ± 0.077
148 | M536W | 0.508 ± 0.068
149 | T334A | 0.83 ± 0.38
150 | S464G | 1.27 ± 0.2
151 | G306C | 0.922 ± 0.068
152 | G306R | 0.689 ± 0.18
153 | P398N | 0.615 ± 0.095
154 | P254I | 0.86 ± 0.25
155 | P254G | 0.342 ± 0.34
156 | E517Y | 0.524 ± 0.051
157 | K111I | 1.36 ± 0.14
158 | P266N | 0.956 ± 0.061
159 | H458C | 1.02 ± 0.049
160 | D103K | 0.633 ± 0.14
161 | F82D | 0.364 ± 0.38
162 | R336L | 0.658 ± 0.29
163 | P509C | 0.247 ± 0.038
164 | P509Y | 1.11 ± 0.057
165 | R132V | -0.3 ± 0.31
166 | E375P | 1.21 ± 0.16
167 | E375F | 1.55 ± 0.084
